These results are taken from patent publication US20180021429A1 (PHARMA FOODS INTERNATIONAL, published 2018).

Like-named read-outs stand apart in the source and are kept apart here.

The target in test [1] is T1, human FSTL1 (construct not stated) (human, UniProt Q12841 21-308).
T1 construct: also called human FSTL1 antigen; FSTL1 (R&D Systems, Inc. Cat#1694-FN-050)
T1 sequence: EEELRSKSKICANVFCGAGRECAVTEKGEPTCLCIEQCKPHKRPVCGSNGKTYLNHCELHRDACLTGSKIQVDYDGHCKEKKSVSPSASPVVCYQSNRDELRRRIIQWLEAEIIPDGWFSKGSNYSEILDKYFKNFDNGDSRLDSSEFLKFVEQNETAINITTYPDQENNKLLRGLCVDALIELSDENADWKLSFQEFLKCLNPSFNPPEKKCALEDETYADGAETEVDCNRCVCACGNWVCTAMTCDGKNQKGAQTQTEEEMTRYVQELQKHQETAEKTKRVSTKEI
Description: BLI (BLItz), biotinylated antigen 5 µg/ml on streptavidin sensor, antibody 0 to 40 ug/ml. How it is done: The binding activity of the obtained purified antibody against FSTL1 was measured by use of the BLI method (BLItz, Pall Corp., 45-5000). The antigen was biotinylated using EZ-Link NHS-PEG4-Biotin (Thermo Fisher Scientific Inc., 21329). Streptavidin Tray (Pall Corp., 18-5019) was used as a sensor chip for the BLI method. The sensor chip was hydrated with PBS (Wako Pure Chemical Industries, Ltd., 166-23555) for 10 minutes or longer. 5 μg/ml of the biotinylated antigen was immobilized onto the hydrated sensor chip for 300 seconds. The antibody was adjusted to 40, 20, 10, 5, 2.5, or 0 ug/ml and reacted therewith for 120 seconds, and dissociation was measured for 300 seconds. When the antibody concentration of 0 ug/ml was used as a reference, the KD value was calculated.

Test [2] deals with T2, His-tagged mouse FSTL1 (amino acid sequence of mouse FSTL1 used in Examples, SEQ ID NO: 72) (mouse, UniProt Q62356 19-306).
T2 sequence: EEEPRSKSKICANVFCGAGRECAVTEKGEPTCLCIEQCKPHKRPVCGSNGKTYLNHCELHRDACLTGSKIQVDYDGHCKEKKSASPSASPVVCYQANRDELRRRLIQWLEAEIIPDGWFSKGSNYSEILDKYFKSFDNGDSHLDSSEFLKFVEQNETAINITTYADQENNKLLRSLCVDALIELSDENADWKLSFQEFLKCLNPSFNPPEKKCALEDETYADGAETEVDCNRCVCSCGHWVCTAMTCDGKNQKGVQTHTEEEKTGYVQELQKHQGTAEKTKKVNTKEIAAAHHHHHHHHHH
Description: ELISA, mouse FSTL1 coated (FIG. 1B).

Test [3] has as its target T1, human FSTL1 (construct not stated). Kind of test: SPR (Biacore T-200), captured antibody, human FSTL1 10 µg/ml. How it is done: (§1) The mouse chimeric antibodies were immobilized onto Sensor Chip CM5 (GE Healthcare Japan Corp., BR-1005-30) using Mouse Antibody Capture Kit (GE Healthcare Japan Corp., BR-1008-38), and their affinity for human FSTL1 was calculated using Biacore T-200 (GE Healthcare Japan Corp.).

Test [4] has the same target. Described as above. The method, then:
as §1
(§2) First, the exhaustive activity comparison of the obtained antibodies was conducted with the human FSTL1 concentration fixed to 10 μg/ml (Table 33-1, FIG. 28).
The source holds these as a separate data set.

The target is the same in test [5]. Described as above. The method, then: as §1, §2
This is another data set of the same source.

Test [6] has the same target. The test is described as above. How it is done: as §1, §2
This is another data set of the same source.

For test [7], the target named is T3, His-tagged human FSTL1 (amino acid sequence of human FSTL1 used in Examples, SEQ ID NO: 70) (human, UniProt Q12841 21-308).
T3 construct: Parent of the deletion mutants
T3 sequence: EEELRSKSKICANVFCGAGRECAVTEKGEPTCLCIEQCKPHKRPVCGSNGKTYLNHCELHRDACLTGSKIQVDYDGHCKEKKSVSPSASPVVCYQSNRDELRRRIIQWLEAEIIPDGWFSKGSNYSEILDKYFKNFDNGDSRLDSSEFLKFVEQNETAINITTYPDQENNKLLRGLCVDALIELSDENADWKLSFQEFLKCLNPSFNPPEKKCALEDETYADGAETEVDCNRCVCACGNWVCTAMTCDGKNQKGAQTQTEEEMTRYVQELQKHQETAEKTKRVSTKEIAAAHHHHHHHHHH
Kind of test: ELISA, human FSTL1 coated (FIG. 3A).

Test [8] has as its target T2, His-tagged mouse FSTL1 (amino acid …). Kind of test: ELISA, mouse FSTL1 coated (FIG. 3B).
The target of test [9] is T1, human FSTL1 (construct not stated). Description: SPR (Biacore T-200), antibody on Human Antibody Capture Kit, human FSTL1 0 to 20 µg/ml. How it is done:
(§3) Nine IgG1-type humanized antibodies of #6-55 were immobilized onto Sensor Chip CM5 (GE Healthcare Japan Corp., BR-1005-30) using Human Antibody Capture Kit (GE Healthcare Japan Corp., BR-1008-38), and their affinity for human FSTL1 was calculated using Biacore T-200 (GE Healthcare Japan Corp.). […] Among the 9 IgG1-type humanized antibodies of #6-55, a clone composed of a combination “H(2)-L(1)” having a […] KD value was selected as a lead antibody.

For test [10] the target is unchanged. Described as above. The method, then:
as §3
The source holds these as a separate data set.

Test [11] has the same target. Described as above. How it is done:
as §3
This is another data set of the same source.

Test [12] has the same target. Described as above. The method, then: as §3
This is another data set of the same source.

B1: optimized humanized antibody (humanized #6-55 H(2)-L(1), human IgG4 H chain constant region, λ L chain constant region) (antibody)
heavy: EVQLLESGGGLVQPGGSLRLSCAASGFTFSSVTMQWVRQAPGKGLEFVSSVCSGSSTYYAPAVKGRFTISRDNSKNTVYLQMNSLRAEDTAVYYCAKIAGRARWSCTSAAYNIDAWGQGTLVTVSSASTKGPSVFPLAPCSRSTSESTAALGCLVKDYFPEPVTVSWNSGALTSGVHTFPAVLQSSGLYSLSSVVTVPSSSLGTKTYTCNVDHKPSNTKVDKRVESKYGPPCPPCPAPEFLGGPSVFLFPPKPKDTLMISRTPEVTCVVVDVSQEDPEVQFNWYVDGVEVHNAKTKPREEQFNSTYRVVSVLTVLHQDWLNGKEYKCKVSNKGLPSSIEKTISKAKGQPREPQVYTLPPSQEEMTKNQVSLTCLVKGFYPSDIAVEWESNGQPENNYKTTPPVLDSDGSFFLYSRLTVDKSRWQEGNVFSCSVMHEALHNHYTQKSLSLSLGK
light: SYELTQPPSVSVSPGQTARITCSGGGNNYGWYQQKPGQAPVTVIYYNDNRPSGIPERFSGSNSGSTTTLTISGVQAEDEADYYCGSWDSNTDSGIFGGGTKLTVLGQPKAAPSVTLFPPSSEELQANKATLVCLISDFYPGAVTVAWKADSSPVKAGVETTTPSKQSNNKYAASSYLSLTPEQWKSHRSYSCQVTHEGSTVEKTVAPTECS
notes: Expressed in ExpiCHO
For B1, the Kd in [1] was found to be 10.9 nM.

B2: anti-FSTL1 antibody clone #7-34 (chicken-mouse chimeric antibody) (antibody, mouse IgG1, kappa, V domains shown)
VH: AVTLDESGGGLQTPGGGLSLVCKASGFTFSSVTMQWVRQAPGKGLEWVASICSGSSTYYGPAVKGRATISRDNGQNTVRLQLNNLRAEDTATYYCAKIVGRGRWSCTSAAYNIDAWGHGTEVIVSS
VL: ASTQPSSVSANPGETVKITCSGGGNNYGWYQQKSPGSAPVTVIYYNNNRPSNIPSRFSGSTSGSTSTLTITGVQAEDEAVYYCGSYEGSTDSGIFGAGTTLTVLG
For the molecule B2, the binding result in [2] is recorded as “binds”. Moreover, the “Binding amount (RU)” value in test [3], in test [4], in test [5] and in test [6] was 14.2 RU throughout. Further, the “Dissociation amount (RU)” value in test [3], in [4], in test [5] and in [6] was 2.5 RU each time.

B3: anti-FSTL1 antibody clone #22 (chicken-mouse chimeric antibody) (antibody, mouse IgG1, kappa, V domains shown)
VH: AVTLDESGGGLQTPGGALSLVCKASGFTFSSNGMAWVRQAPGKGLELVARINSSGSYTNYGAAVKGRATISRDNGQSTVRLQLNNLRAEDTGTYYCAKGASGYGAYPGNIDAWGHGTEVIVSS
VL: ASTQPSSVSANPGETVKITCSGGSGSYGWFQQKSPGSAPVTVIYWDDRRPSDIPSRFSGSKSGSIHTLTITGVQADDEAVYLCGNAVRSGTGYVGVFGAGTTLTVLG
On to B3, for which the binding result in [7] and in [8] was “binds” in each case.

B4: humanized #6-55 antibody H(2)-L(1) (IgG1 type) (antibody)
heavy: not shown
light: SYELTQPPSVSVSPGQTARITCSGGGNNYGWYQQKPGQAPVTVIYYNDNRPSGIPERFSGSNSGSTTTLTISGVQAEDEADYYCGSWDSNTDSGIFGGGTKLTVLGTVAAPSVFIFPPSDEQLKSGTASVVCLLNNFYPREAKVQWKVDNALQSGNSQESVTEQDSKDSTYSLSSTLTLSKADYEKHKVYACEVTHQGLSSPVTKSFNRGEC
notes: Human IgG1 constant region; expressed in HEK293; lead antibody; also called h#6-55 H(2)-L(1); humanized #6-55 H chain (2)+L chain (1)
In the case of B4, the Kd in test [9], in test [10], in test [11] and in test [12] was 60.5 nM each time.

B5: humanized #6-55 antibody H(2)-L(2) (IgG1 type) (antibody, V domains shown)
VH: EVQLLESGGGLVQPGGSLRLSCAASGFTFSSVTMQWVRQAPGKGLEFVSSVCSGSSTYYAPAVKGRFTISRDNSKNTVYLQMNSLRAEDTAVYYCAKIAGRARWSCTSAAYNIDAWGQGTLVTVSS
VL: SYELTQPPSVSVSPGQTARITCSGGGNNYGWYQQKPGQAPVTVIYYNDNRPSGIPERFSGSTSGSTTTLTISGVQAEDEADYYCGSWDSNTDSGIFGGGTKLTVLG
notes: Human IgG1 constant region; expressed in HEK293; also called h#6-55 H(2)-L(2)
B5: the Kd in test [9], in test [10], in test [11] and in [12] was 11.3 nM throughout.

B6: humanized #6-55 antibody H(3)-L(3) (IgG1 type) (antibody, V domains shown)
VH: EVQLLESGGGLVQPGGSLRLSCAASGFTFSSVTMQWVRQAPGKGLEFVASVCSGSSTYYAPAVKGRVTISRDNSKNTVYLQMNSLRAEDTAVYYCAKIAGRARWSCTSAAYNIDAWGQGTLVTVSS
VL: SYELTQPPSVSVSPGQTARITCSGGGNNYGWYQQKPGQAPVTVIYYNDNRPSGIPERFSGSNSGNTATLTISGVQAEDEADYYCGSWDSNTDSGIFGGGTKLTVLG
notes: Human IgG1 constant region; expressed in HEK293; also called h#6-55 H(3)-L(3)
For B6, the Kd in test [9], in test [10], in [11] and in test [12] was 24.9 nM in each case.

B7: humanized #6-55 antibody H(2)-L(3) (IgG1 type) (antibody, V domains shown)
VH: EVQLLESGGGLVQPGGSLRLSCAASGFTFSSVTMQWVRQAPGKGLEFVSSVCSGSSTYYAPAVKGRFTISRDNSKNTVYLQMNSLRAEDTAVYYCAKIAGRARWSCTSAAYNIDAWGQGTLVTVSS
VL: SYELTQPPSVSVSPGQTARITCSGGGNNYGWYQQKPGQAPVTVIYYNDNRPSGIPERFSGSNSGNTATLTISGVQAEDEADYYCGSWDSNTDSGIFGGGTKLTVLG
notes: Human IgG1 constant region; expressed in HEK293; also called h#6-55 H(2)-L(3)
Consider B7, for which the Kd in test [9], in test [10], in test [11] and in test [12] was 45 nM throughout.
